Laboratory results published in patent US20140056895 (published 2014).
Substitutions are numbered along the chain they refer to. Names and notes keep the numbering of the source. Values joined by “and” are separate entries in the source; they are usually repeats but may differ in a detail not shown here. Equal values may be shown once. Read-outs that look alike come from different tables or passages of the source. Values belong to the binder of their own block, whether it stands above or below them.

Key:
[1] = target: T1, IL13 (human, UniProt P35225); assay: SPR
T1 sequence (P35225 35-146): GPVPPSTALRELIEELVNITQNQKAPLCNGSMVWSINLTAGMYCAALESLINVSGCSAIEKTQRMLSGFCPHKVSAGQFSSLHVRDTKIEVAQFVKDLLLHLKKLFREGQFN

[2] = target: T1, IL13; assay: SPR; remark: listed apart in the source
[3] = target: T1, IL13; assay: SPR; remark: listed apart in the source
[4] = target: T1, IL13; assay: SPR; remark: listed apart in the source
[5] = target: T1, IL13; assay: SPR; remark: listed apart in the source
[6] = target: T2, IL4 (human, UniProt P05112); assay: SPR
T2 chain: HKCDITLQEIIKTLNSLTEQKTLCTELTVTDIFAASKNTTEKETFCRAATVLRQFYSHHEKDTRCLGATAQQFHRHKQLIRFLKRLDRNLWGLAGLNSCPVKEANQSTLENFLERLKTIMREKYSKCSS

[7] = target: T2, IL4; assay: SPR
[8] = target: T2, IL4; assay: SPR
[9] = target: T2, IL4; assay: SPR
[10] = target: T2, IL4; assay: SPR
[11] = target: T1, IL13
[12] = target: T2, IL4
[13] = target: EGFR (human, UniProt P00533); assay: SPR

B2: CODV-Ig LC4:HC4, IL13 arm (antibody, V domains shown)
VH: EVQLKESGPGLVAPGGSLSITCTVSGFSLTDSSINWVRQPPGKGLEWLGMIWGDGRIDYADALKSRLSISKDSSKSQVFLEMTSLRTDDTATYYCARDGYFPYAMDFWGQGTSVTVSS
VL: DIVLTQSPASLAVSLGQRATISCRASESVDSYGQSYMHWYQQKAGQPPKLLIYLASNLESGVPARFSGSGSRTDFTLTIDPVQAEDAATYYCQQNAEDSRTFGGGTKLEIK
- Kd [3]: 0.0934 nM

B3: CODV-Fab 421, IL13 arm (antibody, V domains shown)
VH: B2 VH
VL: B2 VL
- Kd [4]: 0.048 nM

B6: CODV-Ig Fc cysteine variants (602, 603), IL13 arm (antibody, V domains shown)
VH: B2 VH
VL: B2 VL
- Kd [5]: 0.064 nM and 0.1 nM

B7: CODV-Ig LC4:HC4, IL4 arm (antibody, V domains shown)
VH: QVQLQQSGPELVKPGASVKISCKASGYSFTSYWIHWIKQRPGQGLEWIGMIDPSDGETRLNQRFQGRATLTVDESTSTAYMQLRSPTSEDSAVYYCTRLKEYGNYDSFYFDVWGAGTLVTVSS
VL: DIQMTQSPASLSVSVGDTITLTCHASQNIDVWLSWFQQKPGNIPKLLIYKASNLHTGVPSRFSGSGSGTGFTLTISSLQPEDIATYYCQQAHSYPFTFGGGTKLEIKR
- Kd [6]: 0.00914 nM

B10: CODV-Ig Fc cysteine variants (602, 603), IL4 arm (antibody, V domains shown)
VH: B7 VH
VL: B7 VL
- Kd [9]: 0.004 nM and 0.01 nM

B11: CODV-Ig LC4:HC6, IL4 arm (antibody, V domains shown)
VH: B7 VH
VL: B7 VL
- Kd [6]: 0.0111 nM

B12: CODV-Fab 421, IL4 arm (antibody, V domains shown)
VH: B7 VH
VL: B7 VL
- Kd [10]: 0.012 nM

B13: CODV 706, IL4 arm (antibody, V domains shown)
VH: B7 VH with G44C
VL: B7 VL with G100C
- Kd [7]: 0.008 nM

B18: CODV-Fab 413, EGFR arm (antibody)
chain 1: not shown
chain 2: EIVLTQSPGTLSVSPGERATLSCRASQSIGSSLHWYQQKPGQAPRLLIKYASQSLSGIPDRFSGSGSGTDFTLTISRLEPEDFAVYYCHQSSRLPHTFGQGTKVEIKGGGGGGGEIVMTQSPATLSLSPGERATLSCRASQSVSSYLAWYQQKPGQAPRLLIYDASNRATGIPARFSGSGSGTDFTLTISSLEPEDFAVYYCHQYGSTPLTFGGGTKAEIKGGGGGRTVAAPSVFIFPPSDEQLKSGTASVVCLLNNFYPREAKVQWKVDNALQSGNSQESVTEQDSKDSTYSLSSTLTLSKADYEKHKVYACEVTHQGLSSPVTKSFNRGEC
- Kd [13]: 42 nM

B19: CODV-Ig 411 HC13/LC13, EGFR arm (antibody)
chain 1: not shown
chain 2: B18 chain 2
- Kd [13]: 124 nM

The next lines start with the values.

- Kd [1]: 0.025 nM
- Kd [2]: 0.025 nM
B1: CODV-Ig heavy-chain template (batches 201-270, 501-508, 704, 801), IL13 arm (antibody, V domains shown)
VH: B2 VH
VL: B2 VL

- Kd [3]: 0.118 nM
B4: CODV-Ig LC4:HC6, IL13 arm (antibody, V domains shown)
VH: B2 VH
VL: B2 VL

- Kd [3]: 0.0818 nM
B5: parental anti-IL13 mAb (B-B13 humanized) (antibody, V domains shown)
VH: B2 VH
VL: B2 VL

- Kd [7]: 0.003 nM
- Kd [8]: 0.003 nM
B8: CODV-Ig heavy-chain template (batches 201-270, 501-508, 704, 801), IL4 arm (antibody, V domains shown)
VH: B7 VH
VL: B7 VL

- Kd [6]: 0.00783 nM
B9: parental anti-IL4 mAb (8D4 humanized) (antibody, V domains shown)
VH: B7 VH
VL: B7 VL

- binding result [11]: no binding
B14: Cross-over IL4(G4S)IL13CH1-Fc / IL13(G4S)IL4CL (antibody)
chain 1: not shown
chain 2: DIVLTQSPASLAVSLGQRATISCRASESVDSYGQSYMHWYQQKAGQPPKLLIYLASNLESGVPARFSGSGSRTDFTLTIDPVQAEDAATYYCQQNAEDSRTFGGGTKLEIKGGGGSDIQMTQSPASLSVSVGDTITLTCHASQNIDVWLSWFQQKPGNIPKLLIYKASNLHTGVPSRFSGSGSGTGFTLTISSLQPEDIATYYCQQAHSYPFTFGGGTKLEIKRTVAAPSVFIFPPSDEQLKSGTASVVCLLNNFYPREAKVQWKVDNALQSGNSQESVTEQDSKDSTYSLSSTLTLSKADYEKHKVYACEVTHQGLSSPVTKSFNRGEC

- binding result [11]: no binding
B15: Cross-over IL4(G4S2)IL13CH1-Fc / IL13(G4S)IL4CL (antibody)
chain 1: not shown
chain 2: B14 chain 2

- binding result [11]: no binding
- binding result [12]: no binding
B16: Cross-over IL4(G4S2)IL13CH1-Fc / IL13(G4S2)IL4CL (antibody)
chain 1: not shown
chain 2: DIVLTQSPASLAVSLGQRATISCRASESVDSYGQSYMHWYQQKAGQPPKLLIYLASNLESGVPARFSGSGSRTDFTLTIDPVQAEDAATYYCQQNAEDSRTFGGGTKLEIKGGGGSGGGGSDIQMTQSPASLSVSVGDTITLTCHASQNIDVWLSWFQQKPGNIPKLLIYKASNLHTGVPSRFSGSGSGTGFTLTISSLQPEDIATYYCQQAHSYPFTFGGGTKLEIKRTVAAPSVFIFPPSDEQLKSGTASVVCLLNNFYPREAKVQWKVDNALQSGNSQESVTEQDSKDSTYSLSSTLTLSKADYEKHKVYACEVTHQGLSSPVTKSFNRGEC

- binding result [11]: no binding
B17: Cross-over IL4(G4S)IL13CH1-Fc / IL13(G4S2)IL4CL (antibody)
chain 1: not shown
chain 2: B16 chain 2
